Experimental data reported in patent US10654925B2, “Anti-marinobufagenin antibodies and uses thereof” (priority 2018, dated 2020).

B1: 206/208: human anti-MBG antibody, VH SEQ ID NO: 36, VL SEQ ID NO: 37 (antibody, listed as Homo sapiens, V domains shown)
VH: QVQLQESGPGLVKPSETLSLTCTVSGGSISSSSYYWGWIRQPPGKGLEWIGSIYYSGSTYYNPSLKSRVTISVDTSKNQFSLKLSSVTAADTAVYYCARVNLRGAFDIWGQGTTVTVSS
VL: QSVVTQPPSVSGAPGQRVTISCTGSSSNIGAGYDVHWYQQLPGTAPKLLIYENNKRPSGIPDRFSGSKSGTSATLGITGLQTGDEADYYCGTWDSSLSAVVFGGGTKLTVL
B2: 201/202: human anti-MBG antibody, VH SEQ ID NO: 22, VL SEQ ID NO: 23 (antibody, listed as Homo sapiens, V domains shown)
VH: QLQLQESGPGLVKPSQTLSLTCTVSGGSISSGGYYWGWIRQPPGKGLEWIGSIYYSGNTYYNPSLKSRVTISVDTSKNQFSLKLSSVTAADTAVYYCARASIAARTFDYWGQGTLVTVSS
VL: QSVLTQPPSVSAAPGQKVTISCSGSSSNIGNNYVSWYQQLPGTAPKLLIYDNNKRPSGIPDRFSGSKSGTSATLGITGLQTGDEADYYCGTWDSSLSAYVFGTGTKVTVL
B3: 236/237: human anti-MBG antibody, VH SEQ ID NO: 14, VL SEQ ID NO: 15 (antibody, listed as Homo sapiens, V domains shown)
VH: QVQLQESGPGLVKPSETLSLTCTVSGGSISSSSYYWGWIRQPPGKGLEWIGSIYYSGSTYYNPSLKSRVTISVDTSKNQFSLKLSSVTAADTAVYYCARARYNWNYVLFDYWGQGTLVTVSS
VL: QAVLTQPSSVSAAPRQRVTISCSGSASNIGRNGVSWYHQVPGKAPRLLLSHDGLVTSGVPDRLSVSKSGTSASLAISGLHSDDEGDYYCAVWDDSLNAVVFGGGTKLTVLS

How the values were obtained:
[1] = ELISA avidity estimate on MBG-BSA; assay type: binding; details: wells coated with 2 μg/ml MBG-BSA; IgG
Description: (§1) The avidity of anti-MBG antibodies for MBG was estimated in an ELISA. Wells of a microtiter plate were coated with 2 μg/ml of either MBG-bovine serum albumin (BSA) or MBG-keyhole limpet hemocyanin (KLH). The wells were then blocked with 1% BSA. A test IgG antibody at varying concentrations (typically from about 0.0001 nM to about 25 nM) was added to the wells. The test IgG bound to immobilized MBG was detected with an anti-human Fc, horseradish peroxidase (HRP)-conjugated secondary antibody (Jackson ImmunoResearch). After washing of the wells, an appropriate HRP reagent (e.g., TMB ultra, Thermo Fisher) was added to the wells. Optical density (OD) at 450 nm was measured by a microplate reader. The concentration of test antibody at the midpoint of the binding curve is an estimate of avidity for MBG.

[2] = ELISA avidity estimate on MBG-KLH; assay type: binding; details: wells coated with 2 μg/ml MBG-KLH; IgG
Description: as §1

[3] = Competitive ELISA, relative CTS specificity, free MBG as competitor; assay type: binding; details: competition with immobilized MBG-BSA; normalized to MBG = 100%
Description: (§2) The specificity (relative affinity) of anti-MBG antibodies for MBG relative to various cardiotonic steroids (CTSs) was determined in a competitive ELISA. Each anti-MBG antibody was tested for its binding to immobilized MBG in the presence of free MBG, resibufogenin (RBG), cinobufagin (CINO), ouabain (OUB) or digoxin (DIG) as a competitor. A constant amount of an anti-MBG antibody (typically 1-5 μg/mL) and varying concentrations of each CTS (from 10^−12M to 10^−5M) were pre-incubated before being added to the MBG-BSA-coated wells. After washing of the wells, an anti-human Fc, HRP-conjugated secondary antibody (at 1:5000 dilution) was added to the wells and incubated at 37° C. for 1 hr. After washing of the wells, an appropriate HRP reagent (e.g., TMB ultra, Thermo Fisher) was added to the wells. OD at 450 nm was measured by a microplate reader. MBG at 10 μM was assumed to be 100% competed, and MBG at 1 pM was assumed to be 0% competed. The data was plotted as a titration of antibody-antigen binding relative to free CTS concentration in the competition reaction to determine the free CTS concentration (μM) giving 50% maximal binding of antibody to immobilized MBG. The relative specificity of an antibody for a CTS was normalized to MBG=100%.

[4] = Competitive ELISA, relative CTS specificity, RBG as competitor; assay type: binding; details: competition with immobilized MBG-BSA; normalized to MBG = 100%
Description: as §2

[5] = Competitive ELISA, relative CTS specificity, CINO as competitor; assay type: binding; details: competition with immobilized MBG-BSA; normalized to MBG = 100%
Description: as §2

[6] = Competitive ELISA, relative CTS specificity, OUB as competitor; assay type: binding; details: competition with immobilized MBG-BSA; normalized to MBG = 100%
Description: as §2

[7] = Competitive ELISA, relative CTS specificity, DIG as competitor; assay type: binding; details: competition with immobilized MBG-BSA; normalized to MBG = 100%
Description: as §2

[8] = Competitive ELISA, free CTS competitors overall (summary and footnote); assay type: binding; details: competitors RBG, CINO, OUB, DIG; Table 2
Description: as §2

[9] = test system: PKC-δ in the nucleus of primary rat cardiac fibroblasts; assay: Inhibition of MBG-induced PKC-δ nuclear translocation (Western blot); details: MBG 2 nM; nuclei isolated 30 min later; FIG. 2a
Description: MBG was incubated with an anti-MBG antibody prior to addition to cultured primary rat cardiac fibroblasts. Nuclei were isolated 30 min later and analyzed for amount of PKC-6.

[10] = test system: human umbilical cord venous endothelial cells (HUVEC); assay: Reversal of MBG inhibition of HUVEC cell proliferation (3H-thymidine); assay type: cell-based; details: MBG 2 nM, antibody 20 μg/mL, 48 hr; FIG. 3a
Description: MBG (2 nM) was incubated with an antibody (20 μg/mL in FIG. 3a with human anti-MBG mAbs, or varying concentrations (2.5-10 μg/mL) in FIG. 3b with humanized anti-MBG mAbs) prior to addition to cultured human umbilical cord venous endothelial cells (HUVEC). After 48 hr, DNA synthesis was assessed by incorporation of ^3H-thymidine.
HUVEC cells in endothelial cell growth medium were plated onto 96-well plates. The next day, the cells were pretreated with various antibodies (2.5-20 μg/mL) and then incubated with 2 nM MBG for 48 hr. [^3H]-Thymidine was added to each well. [^3H]-Thymidine-labeled DNA was assayed by harvesting the cells and assaying for ^3H using a PerkinElmer Wallac Tailux liquid scintillation counter. […] Means were tested for significance using Student's t-test.

| Molecule | Estimated avidity (KA) (antibody concentration at 50% maximal binding to antigen, or EC50), Antigen 1 (MBG-BSA) [1] [pM] | Estimated avidity (KA) (antibody concentration at 50% maximal binding to antigen, or EC50), Antigen 2 (MBG-KLH) [2] [pM] | Rel. CTS Specificity as % of MBG Binding: MBG [3] [%] | Rel. CTS Specificity as % of MBG Binding: RBG [4] [%] | Rel. CTS Specificity as % of MBG Binding: CINO [5] [%] | Rel. CTS Specificity as % of MBG Binding: OUB [6] [%] | Rel. CTS Specificity as % of MBG Binding: DIG [7] [%] | reaction with CTS competitor molecules [8] | amount of PKC-δ in the nucleus, MBG plus antibody [9] | MBG inhibition of HUVEC cell proliferation, human mAbs [10] |
| --- | --- | --- | --- | --- | --- | --- | --- | --- | --- | --- |
| B1 | 1350 | 200 | 100 | 20 | 0 | 0 | 0 | reacted with CTS competitor RBG | reduced |  |
| B2 | 330 | 200 | 100 | 50 | 20 | 0 | 0 | reacted with the CTS competitors RBG and CINO | reduced | significantly reduced |
| B3 | 120 | 140 | 100 | 0 | 0 | 0 | 0 | did not react with any of the CTS competitor molecules | reduced | significantly reduced |
